In patent publication US20220143024A1, “METHODS OF USING IMIPRIDONES” (Board of Regents, The University of Texas System, priority 2019, published 2022):

What was measured:
Assay in all cases: BioID-MS +ONC201
ARG2 (human) = ARG2 (human) (UniProt P78540)
TFAM (human) = TFAM (human) (UniProt Q00059)
ACSS1 (human) = ACSS1 (human) (UniProt Q9NUB1)
MRM3 (human) = MRM3 (human) (UniProt Q9HC36)
CARS2 (human) = CARS2 (human) (UniProt Q9HA77)
FMC1 (human) = FMC1 (human) (UniProt Q96HJ9)
FOXRED1 (human) = FOXRED1 (human) (UniProt Q96CU9)
GATB (human) = GATB (human) (UniProt O75879)
GATB (human), sequence (O75879 31-557 limits assumed): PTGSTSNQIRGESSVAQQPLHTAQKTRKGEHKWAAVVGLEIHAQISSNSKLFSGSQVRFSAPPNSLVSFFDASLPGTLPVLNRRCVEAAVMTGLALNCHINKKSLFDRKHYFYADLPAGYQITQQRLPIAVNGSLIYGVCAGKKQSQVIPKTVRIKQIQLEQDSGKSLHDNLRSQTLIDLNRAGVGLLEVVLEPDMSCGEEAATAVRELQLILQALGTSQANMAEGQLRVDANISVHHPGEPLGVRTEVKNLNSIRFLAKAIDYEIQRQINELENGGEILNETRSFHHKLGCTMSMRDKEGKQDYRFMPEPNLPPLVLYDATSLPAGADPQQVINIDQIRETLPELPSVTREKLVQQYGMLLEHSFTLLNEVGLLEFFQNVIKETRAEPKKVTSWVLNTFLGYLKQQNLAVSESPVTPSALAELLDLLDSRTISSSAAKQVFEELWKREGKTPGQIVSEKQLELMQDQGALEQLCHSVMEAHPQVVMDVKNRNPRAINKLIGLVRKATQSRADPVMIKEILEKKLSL

ABCB10 (human) = ABCB10 (human) (UniProt Q9NRK6)
TARS2 (human) = TARS2 (human) (UniProt Q9BW92)
SLC27A2 (human) = SLC27A2 (human) (UniProt O14975)
GRSF1 (human) = GRSF1 (human) (UniProt Q12849)
NDUFAF7 (human) = NDUFAF7 (human) (UniProt Q7L592)
NDUFA7 (human) = NDUFA7 (human) (UniProt O95182)
ABCB7 (human) = ABCB7 (human) (UniProt O75027)
ABCB7 (human), sequence (O75027 23-752 limits assumed): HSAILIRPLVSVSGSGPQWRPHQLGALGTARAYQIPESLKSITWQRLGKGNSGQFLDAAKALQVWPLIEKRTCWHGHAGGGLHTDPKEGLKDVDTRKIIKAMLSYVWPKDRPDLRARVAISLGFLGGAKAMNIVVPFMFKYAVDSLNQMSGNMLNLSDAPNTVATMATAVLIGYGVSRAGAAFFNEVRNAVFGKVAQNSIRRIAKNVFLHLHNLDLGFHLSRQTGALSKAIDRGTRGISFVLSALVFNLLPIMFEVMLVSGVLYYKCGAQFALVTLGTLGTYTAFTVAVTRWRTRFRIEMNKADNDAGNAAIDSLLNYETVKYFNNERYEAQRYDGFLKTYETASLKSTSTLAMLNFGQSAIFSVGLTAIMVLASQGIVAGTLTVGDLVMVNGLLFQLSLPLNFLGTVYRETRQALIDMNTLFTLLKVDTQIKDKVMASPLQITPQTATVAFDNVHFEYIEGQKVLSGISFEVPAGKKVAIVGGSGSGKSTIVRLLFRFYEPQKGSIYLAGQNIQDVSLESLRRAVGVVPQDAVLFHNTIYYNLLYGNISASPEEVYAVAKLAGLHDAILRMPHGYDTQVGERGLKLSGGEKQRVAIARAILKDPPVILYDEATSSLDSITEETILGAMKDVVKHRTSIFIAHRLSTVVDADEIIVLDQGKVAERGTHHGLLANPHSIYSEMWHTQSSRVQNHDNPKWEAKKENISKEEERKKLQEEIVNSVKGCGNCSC

C12orf10 (human) = C12orf10 (human) (UniProt Q9HB07)
COX5B (human) = COX5B (human) (UniProt P10606)
COX5B (human), sequence (P10606 32-129 limits assumed): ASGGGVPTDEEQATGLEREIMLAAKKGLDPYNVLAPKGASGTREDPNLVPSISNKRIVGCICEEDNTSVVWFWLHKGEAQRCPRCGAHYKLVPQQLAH

ATPAF1 (human) = ATPAF1 (human) (UniProt Q5TC12)
CPOX (human) = CPOX (human) (UniProt P36551)
CPOX (human), sequence (P36551 111-454 limits assumed): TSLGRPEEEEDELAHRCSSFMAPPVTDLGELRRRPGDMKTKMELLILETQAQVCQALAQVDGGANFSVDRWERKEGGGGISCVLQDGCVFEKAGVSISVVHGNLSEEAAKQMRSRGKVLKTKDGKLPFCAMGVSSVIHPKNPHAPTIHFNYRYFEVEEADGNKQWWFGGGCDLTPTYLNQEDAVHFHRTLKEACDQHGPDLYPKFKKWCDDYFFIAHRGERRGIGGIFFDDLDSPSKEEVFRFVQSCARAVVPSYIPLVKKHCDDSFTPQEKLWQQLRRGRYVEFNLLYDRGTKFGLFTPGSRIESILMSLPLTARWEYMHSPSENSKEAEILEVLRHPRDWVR

MMAB (human) = MMAB (human) (UniProt Q96EY8)
FASTKD2 (human) = FASTKD2 (human) (UniProt Q9NYY8)
MRPS6 (human) = MRPS6 (human) (UniProt P82932)
MRPL10 (human) = MRPL10 (human) (UniProt Q7Z7H8)
HIBCH (human) = HIBCH (human) (UniProt Q6NVY1)
HIBCH (human), sequence (Q6NVY1 33-386 limits assumed): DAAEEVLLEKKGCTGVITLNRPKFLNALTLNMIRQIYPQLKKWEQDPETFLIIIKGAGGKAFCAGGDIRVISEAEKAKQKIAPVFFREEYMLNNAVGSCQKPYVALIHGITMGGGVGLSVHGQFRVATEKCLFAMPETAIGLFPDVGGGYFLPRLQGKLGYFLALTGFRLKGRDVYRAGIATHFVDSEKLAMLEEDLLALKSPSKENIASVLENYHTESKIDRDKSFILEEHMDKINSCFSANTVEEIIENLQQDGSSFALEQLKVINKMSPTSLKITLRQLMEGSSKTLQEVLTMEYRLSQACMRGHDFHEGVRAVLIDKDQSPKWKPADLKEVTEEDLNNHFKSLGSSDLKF

MRPS24 (human) = MRPS24 (human) (UniProt Q96EL2)
NDUFAF2 (human) = NDUFAF2 (human) (UniProt Q8N183)
METTL17 (human) = METTL17 (human) (UniProt Q9H7H0)
C8orf82 (human) = C8orf82 (human) (UniProt Q6P1X6)
RTN4IP1 (human) = RTN4IP1 (human) (UniProt Q8WWV3)
GUF1 (human) = GUF1 (human) (UniProt Q8N442)
GUF1 (human), sequence (Q8N442 50-669 limits assumed): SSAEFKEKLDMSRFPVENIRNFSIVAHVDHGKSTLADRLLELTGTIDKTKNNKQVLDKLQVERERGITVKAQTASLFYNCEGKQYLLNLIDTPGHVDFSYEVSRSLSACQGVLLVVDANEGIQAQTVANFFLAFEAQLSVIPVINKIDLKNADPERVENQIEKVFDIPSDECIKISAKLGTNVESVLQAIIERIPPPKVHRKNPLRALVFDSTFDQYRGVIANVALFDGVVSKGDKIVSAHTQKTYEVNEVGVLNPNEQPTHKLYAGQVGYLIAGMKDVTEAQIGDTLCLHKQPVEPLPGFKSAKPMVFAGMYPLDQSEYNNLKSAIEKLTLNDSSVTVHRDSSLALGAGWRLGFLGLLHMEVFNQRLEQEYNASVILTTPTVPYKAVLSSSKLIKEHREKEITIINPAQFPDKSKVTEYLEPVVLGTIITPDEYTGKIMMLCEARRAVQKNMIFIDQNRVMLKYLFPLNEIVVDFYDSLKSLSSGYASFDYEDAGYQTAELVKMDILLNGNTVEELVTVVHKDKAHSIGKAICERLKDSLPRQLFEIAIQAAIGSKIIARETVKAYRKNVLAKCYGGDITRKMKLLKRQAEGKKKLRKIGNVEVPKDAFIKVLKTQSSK

GFM1 (human) = GFM1 (human) (UniProt Q96RP9)
SPRYD4 (human) = SPRYD4 (human) (UniProt Q8WW59)
ACADVL (human) = ACADVL (human) (UniProt P49748)
GTPBP10 (human) = GTPBP10 (human) (UniProt A4D1E9)
GTPBP10 (human), sequence (A4D1E9 whole entry): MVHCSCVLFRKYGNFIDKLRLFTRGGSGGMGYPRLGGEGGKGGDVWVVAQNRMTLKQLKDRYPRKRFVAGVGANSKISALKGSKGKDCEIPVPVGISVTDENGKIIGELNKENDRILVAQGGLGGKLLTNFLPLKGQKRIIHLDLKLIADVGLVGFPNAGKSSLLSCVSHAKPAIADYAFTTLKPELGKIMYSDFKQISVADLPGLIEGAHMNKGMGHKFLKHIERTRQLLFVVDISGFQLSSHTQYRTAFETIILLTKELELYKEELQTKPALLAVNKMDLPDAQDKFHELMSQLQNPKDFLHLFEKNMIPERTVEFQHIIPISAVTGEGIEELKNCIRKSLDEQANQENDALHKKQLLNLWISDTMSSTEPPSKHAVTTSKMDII

PDE12 (human) = PDE12 (human) (UniProt Q6L8Q7)
COX4I1 (human) = COX4I1 (human) (UniProt P13073)
COX4I1 (human), sequence (P13073 23-169 limits assumed): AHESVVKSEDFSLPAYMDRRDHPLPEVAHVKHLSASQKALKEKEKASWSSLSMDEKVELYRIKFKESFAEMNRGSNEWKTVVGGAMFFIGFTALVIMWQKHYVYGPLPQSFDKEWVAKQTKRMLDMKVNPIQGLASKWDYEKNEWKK

HSPA1L (human) = HSPA1L (human) (UniProt P34931)
MTIF2 (human) = MTIF2 (human) (UniProt P46199)
MTIF2 (human), sequence (P46199 30-727 limits assumed): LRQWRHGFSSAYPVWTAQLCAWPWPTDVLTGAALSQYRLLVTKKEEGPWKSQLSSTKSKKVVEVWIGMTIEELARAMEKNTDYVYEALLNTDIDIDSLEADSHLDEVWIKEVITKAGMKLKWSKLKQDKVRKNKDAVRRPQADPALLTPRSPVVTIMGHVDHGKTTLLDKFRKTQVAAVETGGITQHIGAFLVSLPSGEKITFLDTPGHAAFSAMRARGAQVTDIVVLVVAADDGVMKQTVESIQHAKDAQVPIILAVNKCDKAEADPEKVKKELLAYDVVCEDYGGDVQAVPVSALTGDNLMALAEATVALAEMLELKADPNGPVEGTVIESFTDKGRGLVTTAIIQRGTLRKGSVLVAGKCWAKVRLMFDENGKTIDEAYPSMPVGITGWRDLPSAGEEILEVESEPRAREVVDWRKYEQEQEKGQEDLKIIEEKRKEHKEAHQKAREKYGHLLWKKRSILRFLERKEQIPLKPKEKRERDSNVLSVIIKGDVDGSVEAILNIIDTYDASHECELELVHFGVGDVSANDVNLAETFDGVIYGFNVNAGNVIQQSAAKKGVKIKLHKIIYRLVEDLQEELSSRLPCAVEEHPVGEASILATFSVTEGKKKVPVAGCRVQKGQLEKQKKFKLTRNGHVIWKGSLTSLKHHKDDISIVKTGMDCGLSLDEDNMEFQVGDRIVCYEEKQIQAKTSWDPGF

MTRF1L (human) = MTRF1L (human) (UniProt Q9UGC7)
MTRF1L (human), sequence (Q9UGC7 27-380 limits assumed): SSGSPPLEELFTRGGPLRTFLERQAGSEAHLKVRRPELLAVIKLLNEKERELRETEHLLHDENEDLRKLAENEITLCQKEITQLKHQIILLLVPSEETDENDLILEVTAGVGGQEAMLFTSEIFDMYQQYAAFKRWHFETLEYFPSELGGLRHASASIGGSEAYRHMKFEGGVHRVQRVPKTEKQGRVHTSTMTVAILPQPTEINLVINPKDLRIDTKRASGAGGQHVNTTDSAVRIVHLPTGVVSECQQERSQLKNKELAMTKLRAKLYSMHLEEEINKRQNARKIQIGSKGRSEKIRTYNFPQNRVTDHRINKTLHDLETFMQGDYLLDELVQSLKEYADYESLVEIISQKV

MGME1 (human) = MGME1 (human) (UniProt Q9BQP7)
MRPL45 (human) = MRPL45 (human) (UniProt Q9BRJ2)
THEM4 (human) = THEM4 (human) (UniProt Q5T1C6)
THEM4 (human), sequence (Q5T1C6 37-240 limits assumed): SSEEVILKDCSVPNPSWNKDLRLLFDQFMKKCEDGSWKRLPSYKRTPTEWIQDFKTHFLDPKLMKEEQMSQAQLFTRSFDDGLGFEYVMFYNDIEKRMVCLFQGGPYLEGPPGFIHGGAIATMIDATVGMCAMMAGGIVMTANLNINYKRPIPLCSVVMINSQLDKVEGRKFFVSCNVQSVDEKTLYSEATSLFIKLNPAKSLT

RNMTL1 (human) = RNMTL1 (human) (UniProt Q9HC36)
MRPS25 (human) = MRPS25 (human) (UniProt P82663)
NDUFS2 (human) = NDUFS2 (human) (UniProt O75306)
LETM1 (human) = LETM1 (human) (UniProt O95202)
MRPL47 (human) = MRPL47 (human) (UniProt Q9HD33)
NDUFAF3 (human) = NDUFAF3 (human) (UniProt Q9BU61)
ATPAF2 (human) = ATPAF2 (human) (UniProt Q8N5M1)
ATPAF2 (human), sequence (Q8N5M1 41-289 limits assumed): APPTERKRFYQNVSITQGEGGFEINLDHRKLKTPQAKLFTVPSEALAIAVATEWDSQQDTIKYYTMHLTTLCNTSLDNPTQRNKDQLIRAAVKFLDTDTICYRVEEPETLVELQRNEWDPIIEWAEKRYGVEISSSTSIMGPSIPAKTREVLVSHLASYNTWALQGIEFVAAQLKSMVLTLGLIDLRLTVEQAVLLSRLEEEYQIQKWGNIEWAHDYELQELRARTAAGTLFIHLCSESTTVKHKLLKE

C2orf56 (human) = C2orf56 (human) (UniProt Q7L592)
COX5A (human) = COX5A (human) (UniProt P20674)

FMC1 (human), sequence (Q96HJ9 whole entry): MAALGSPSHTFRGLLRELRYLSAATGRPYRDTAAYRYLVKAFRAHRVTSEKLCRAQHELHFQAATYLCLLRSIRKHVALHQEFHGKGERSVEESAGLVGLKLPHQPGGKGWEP

Question: With “FlagBirA-ClpP (WT) (from UniProt P06709 1-321; Q16740 57-277) (enzyme)” as the substance, how does the Log2 Fold change (vs control) (ARG2 (human)) read?
Answer: Its Log2 Fold change (vs control) is -0.16 log2.

Question: And the Log2 Fold change (vs control) (TFAM (human))?
Answer: Its Log2 Fold change (vs control) is -1.61 log2.

Question: And the Log2 Fold change (vs control) (ACSS1 (human))?
Answer: The Log2 Fold change (vs control) was -4.46 log2.

Question: What about the Log2 Fold change (vs control) (MRM3 (human)) of the same substance?
Answer: Its Log2 Fold change (vs control) is -1.62 log2.

Question: And the Log2 Fold change (vs control) (CARS2 (human))?
Answer: Its Log2 Fold change (vs control) is -0.21 log2.

Question: What about the Log2 Fold change (vs control) (FMC1 (human)) of the same substance?
Answer: The Log2 Fold change (vs control) was -6.86 log2.

Question: And the Log2 Fold change (vs control) (FOXRED1 (human))?
Answer: The Log2 Fold change (vs control) was -4.09 log2.

Question: And the Log2 Fold change (vs control) (GATB (human))?
Answer: Its Log2 Fold change (vs control) is -1.84 log2.

Question: And the Log2 Fold change (vs control) (ABCB10 (human))?
Answer: The Log2 Fold change (vs control) was -0.24 log2.

Question: What about the Log2 Fold change (vs control) (TARS2 (human)) of the same substance?
Answer: Its Log2 Fold change (vs control) is -1.95 log2.

Question: And the Log2 Fold change (vs control) (SLC27A2 (human))?
Answer: The Log2 Fold change (vs control) was -1.81 log2.

Question: What about the Log2 Fold change (vs control) (GRSF1 (human)) of the same substance?
Answer: The Log2 Fold change (vs control) was -6.34 log2.

Question: What about the Log2 Fold change (vs control) (NDUFAF7 (human)) of the same substance?
Answer: Its Log2 Fold change (vs control) is -1.89 log2.

Question: And the Log2 Fold change (vs control) (NDUFA7 (human))?
Answer: Its Log2 Fold change (vs control) is -3.81 log2.

Question: What about the Log2 Fold change (vs control) (ABCB7 (human)) of the same substance?
Answer: Its Log2 Fold change (vs control) is -0.45 log2.

Question: What about the Log2 Fold change (vs control) (C12orf10 (human)) of the same substance?
Answer: The Log2 Fold change (vs control) was -3.75 log2.

Question: What about the Log2 Fold change (vs control) (COX5B (human)) of the same substance?
Answer: The Log2 Fold change (vs control) was -5 log2.

Question: And the Log2 Fold change (vs control) (ATPAF1 (human))?
Answer: The Log2 Fold change (vs control) was -2.17 log2.

Question: What about the Log2 Fold change (vs control) (CPOX (human)) of the same substance?
Answer: Its Log2 Fold change (vs control) is -2.12 log2.

Question: And the Log2 Fold change (vs control) (MMAB (human))?
Answer: The Log2 Fold change (vs control) was -0.37 log2.

Question: What about the Log2 Fold change (vs control) (FASTKD2 (human)) of the same substance?
Answer: The Log2 Fold change (vs control) was -0.62 log2.

Question: What about the Log2 Fold change (vs control) (MRPS6 (human)) of the same substance?
Answer: The Log2 Fold change (vs control) was -4.52 log2.

Question: What about the Log2 Fold change (vs control) (MRPL10 (human)) of the same substance?
Answer: Its Log2 Fold change (vs control) is -4.46 log2.

Question: And the Log2 Fold change (vs control) (HIBCH (human))?
Answer: The Log2 Fold change (vs control) was -1.55 log2.

Question: And the Log2 Fold change (vs control) (MRPS24 (human))?
Answer: The Log2 Fold change (vs control) was -4.81 log2.

Question: What about the Log2 Fold change (vs control) (NDUFAF2 (human)) of the same substance?
Answer: Its Log2 Fold change (vs control) is -7.94 log2.

Question: What about the Log2 Fold change (vs control) (METTL17 (human)) of the same substance?
Answer: Its Log2 Fold change (vs control) is -3.58 log2.

Question: What about the Log2 Fold change (vs control) (C8orf82 (human)) of the same substance?
Answer: The Log2 Fold change (vs control) was -1.19 log2.

Question: And the Log2 Fold change (vs control) (RTN4IP1 (human))?
Answer: The Log2 Fold change (vs control) was -1.5 log2.

Question: What about the Log2 Fold change (vs control) (GUF1 (human)) of the same substance?
Answer: Its Log2 Fold change (vs control) is -4.04 log2.

Question: And the Log2 Fold change (vs control) (GFM1 (human))?
Answer: The Log2 Fold change (vs control) was -1.08 log2.

Question: What about the Log2 Fold change (vs control) (SPRYD4 (human)) of the same substance?
Answer: The Log2 Fold change (vs control) was -1.26 log2.

Question: And the Log2 Fold change (vs control) (ACADVL (human))?
Answer: The Log2 Fold change (vs control) was 0.55 log2.

Question: What about the Log2 Fold change (vs control) (GTPBP10 (human)) of the same substance?
Answer: Its Log2 Fold change (vs control) is -4.91 log2.

Question: And the Log2 Fold change (vs control) (PDE12 (human))?
Answer: The Log2 Fold change (vs control) was -5.78 log2.

Question: What about the Log2 Fold change (vs control) (COX4I1 (human)) of the same substance?
Answer: Its Log2 Fold change (vs control) is -2.74 log2.

Question: What about the Log2 Fold change (vs control) (HSPA1L (human)) of the same substance?
Answer: The Log2 Fold change (vs control) was 0.5 log2.

Question: What about the Log2 Fold change (vs control) (MTIF2 (human)) of the same substance?
Answer: Its Log2 Fold change (vs control) is -5.55 log2.

Question: And the Log2 Fold change (vs control) (MTRF1L (human))?
Answer: The Log2 Fold change (vs control) was -3.81 log2.

Question: What about the Log2 Fold change (vs control) (MGME1 (human)) of the same substance?
Answer: The Log2 Fold change (vs control) was 0.27 log2.

Question: And the Log2 Fold change (vs control) (MRPL45 (human))?
Answer: The Log2 Fold change (vs control) was -6.44 log2.

Question: What about the Log2 Fold change (vs control) (THEM4 (human)) of the same substance?
Answer: The Log2 Fold change (vs control) was -0.88 log2.

Question: And the Log2 Fold change (vs control) (RNMTL1 (human))?
Answer: The Log2 Fold change (vs control) was 0.05 log2.

Question: And the Log2 Fold change (vs control) (MRPS25 (human))?
Answer: The Log2 Fold change (vs control) was -3.91 log2.

Question: And the Log2 Fold change (vs control) (NDUFS2 (human))?
Answer: The Log2 Fold change (vs control) was -2.44 log2.

Question: And the Log2 Fold change (vs control) (LETM1 (human))?
Answer: Its Log2 Fold change (vs control) is -0.94 log2.

Question: And the Log2 Fold change (vs control) (MRPL47 (human))?
Answer: Its Log2 Fold change (vs control) is -4.52 log2.

Question: What about the Log2 Fold change (vs control) (NDUFAF3 (human)) of the same substance?
Answer: The Log2 Fold change (vs control) was -0.73 log2.

Question: What about the Log2 Fold change (vs control) (ATPAF2 (human)) of the same substance?
Answer: The Log2 Fold change (vs control) was -2.58 log2.

Question: What about the Log2 Fold change (vs control) (C2orf56 (human)) of the same substance?
Answer: The Log2 Fold change (vs control) was -2.44 log2.

Question: And the Log2 Fold change (vs control) (COX5A (human))?
Answer: The Log2 Fold change (vs control) was -2.87 log2.
